The supplement of paper PMC11246515
± gives the standard deviation of the averaged measurements.

Experiment: total protein half-life in vivo (active degradation + dilution); higher = more stable protein
[1] = wild type E. coli NCM3722, growth: C-lim chemostat, doubling time 3 h
[2] = wild type E. coli NCM3722, growth: C-lim chemostat, doubling time 6 h
[3] = wild type E. coli NCM3722, growth: C-lim chemostat, doubling time 12 h
[4] = E. coli NCM3722 delta-clpP delta-lon delta-hslV, growth: N-lim chemostat, doubling time 6 h
[5] = E. coli NCM3722 delta-clpP, growth: N-lim chemostat, doubling time 6 h
[6] = E. coli NCM3722 delta-smpB, growth: N-lim chemostat, doubling time 6 h
[7] = wild type E. coli NCM3722, growth: N-lim chemostat, doubling time 6 h
[8] = wild type E. coli NCM3722, growth: N-lim chemostat, doubling time 12 h
[9] = wild type E. coli NCM3722, growth: P-lim chemostat, doubling time 6 h
[10] = wild type E. coli NCM3722, growth: P-lim chemostat, doubling time 12 h
[11] = E. coli NCM3722 delta-hslV, growth: N-lim chemostat, doubling time 6 h
[12] = E. coli NCM3722 delta-lon, growth: N-lim chemostat, doubling time 6 h

Sequence | total protein half-life in vivo [1] [h] | total protein half-life in vivo [2] [h] | total protein half-life in vivo [3] [h] | total protein half-life in vivo [4] [h] | total protein half-life in vivo [5] [h] | total protein half-life in vivo [6] [h] | total protein half-life in vivo [7] [h] | total protein half-life in vivo [8] [h] | total protein half-life in vivo [9] [h] | total protein half-life in vivo [10] [h] | total protein half-life in vivo [11] [h] | total protein half-life in vivo [12] [h]
MNRWENIQLTHENRLAPRAYFFSYDSVAQARTFARETSSLFLPLSGQWNFHFFDHPLQVPEAFTSELMADWGHITVPAMWQMEGHGKLQYTDEGFPFPIDVPFVPSDNPTGAYQRIFTLSDGWQGKQTLIKFDGVETYFEVYVNGQYVGFSKGSRLTAEFDISAMVKTGDNLLCVRVMQWADSTYVEDQDMWWSAGIFRDVYLVGKHLTHINDFTVRTDFDEAYCDATLSCEVVLENLAASPVVTTLEYTLFDGERVVHSSAIDHLAIEKLTSASFAFTVEQPQQWSAESPYLYHLVMTLKDANGNVLEVVPQRVGFRDIKVRDGLFWINNRYVMLHGVNRHDNDHRKGRAVGMDRVEKDLQLMKQHNINSVRTAHYPNDPRFYELCDIYGLFVMAETDVESHGFANVGDISRITDDPQWEKVYVERIVRHIHAQKNHPSIIIWSLGNESGYGCNIRAMYHAAKALDDTRLVHYEEDRDAEVVDIISTMYTRVPLMNEFGEYPHPKPRIICEYAHAMGNGPGGLTEYQNVFYKHDCIQGHYVWEWCDHGIQAQDDHGNVWYKFGGDYGDYPNNYNFCLDGLIYSDQTPGPGLKEYKQVIAPVKIHARDLTRGELKVENKLWFTTLDDYTLHAEVRAEGETLATQQIKLRDVAPNSEAPLQITLPQLDAREAFLNITVTKDSRTRYSEAGHPIATYQFPLKENTAQPVPFAPNNARPLTLEDDRLSCTVRGYNFAITFSKMSGKPTSWQVNGESLLTREPKINFFKPMIDNHKQEYEGLWQPNHLQIMQEHLRDFAVEQSDGEVLIISRTVIAPPVFDFGMRCTYIWRIAADGQVNVALSGERYGDYPHIIPCIGFTMGINGEYDQVAYYGRGPGENYADSQQANIIDIWRSTVDAMFENYPFPQNNGNRQHVRWTALTNRHGNGLLVVPQRPINFSAWHYTQENIHAAQHCNELQRSDDITLNLDHQLLGLGSNSWGSEVLDSWRVWFRDFSYGFTLLPVSGGEATAQSLASYEFGAGFFSTNLHSENKQ | 3.17 ± 0.0082 | 5.26 ± 0.23 | 12.4 ± 2 |  |  |  |  |  |  |  |  | 
MNSCDFRVFLQEFGTTVHLSLPGSVSEKERLLLKLLMQGMSVTEISQYRNRSAKTISHQKKQLFEKLGIQSDITFWRDIFFQYNPEIISATGSNSHRYINDNHYHHIVTPEAISLALENHEFKPWIQPVFCAQTGVLTGCEVLVRWEHPQTGIIPPDQFIPLAESSGLIVIMTRQLMKQTADILMPVKHLLPDNFHIGINVSAGCFLAAGFEKECLNLVNKLGNDKIKLVLELTERNPIPVTPEARAIFDSLHQHNITFALDDFGTGYATYRYLQAFPVDFIKIDKSFVQMASVDEISGHIVDNIVELARKPGLSIVAEGVETQEQADLMIGKGVHFLQGYLYSPPVPGNKFISEWVMKAGG | 3.346 ± 0.027 | 5.06 ± 0.71 | 10.4 ± 2.6 | 6.19 ± 0.079 | 5.64 ± 0.26 | 5.76 ± 0.27 | 5.94 ± 0.41 | 10.9 ± 0.36 | 5.76 ± 0.1 | 12.3 ± 1.1 |  | 
MNSKKLCCICVLFSLLAGCASESSIDEKKKKAQVTQSNINKNTPQQLTDKDLFGNETTLAVSEEDIQAALDGDEFRVPLNSPVILVQSGNRAPETIMQEEMRKYYTVSTFSGIPDRQKPLTCNKNKDKNENEDVASAENMNWMQALRFVAAKGHQKAIIVYQDMLQTGKYDSALKSTVWSDYKNDKLTDAISLRYLVRFTLVDVATGEWATWSPVNYEYKVLPPLPDKNEASTTDMTEQQIMQLKQKTYKAMVKDLVNRYQ |  |  |  |  |  | 2.44 |  |  |  |  |  | 
MNSLFASTARGLEELLKTELENLGAVECQVVQGGVHFKGDTRLVYQSLMWSRLASRIMLPLGECKVYSDLDLYLGVQAINWTEMFNPGATFAVHFSGLNDTIRNSQYGAMKVKDAIVDAFTRKNLPRPNVDRDAPDIRVNVWLHKETASIALDLSGDGLHLRGYRDRAGIAPIKETLAAAIVMRSGWQPGTPLLDPMCGSGTLLIEAAMLATDRAPGLHRGRWGFSGWAQHDEAIWQEVKAEAQTRARKGLAEYSSHFYGSDSDARVIQRARTNARLAGIGELITFEVKDVAQLTNPLPKGPYGTVLSNPPYGERLDSEPALIALHSLLGRIMKNQFGGWNLSLFSASPDLLSCLQLRADKQYKAKNGPLDCVQKNYHVAESTPDSKPAMVAEDYTNRLRKNLKKFEKWARQEGIECYRLYDADLPEYNVAVDRYADWVVVQEYAPPKTIDAHKARQRLFDIIAATISVLGIAPNKLVLKTRERQKGKNQYQKLGEKGEFLEVTEYNAHLWVNLTDYLDTGLFLDHRIARRMLGQMSKGKDFLNLFSYTGSATVHAGLGGARSTTTVDMSRTYLEWAERNLRLNGLTGRAHRLIQADCLAWLREANEQFDLIFIDPPTFSNSKRMEDAFDVQRDHLALMKDLKRLLRAGGTIMFSNNKRGFRMDLDGLAKLGLKAQEITQKTLSQDFARNRQIHNCWLITAA | 3.13 ± 0.17 | 6.101 ± 0.011 | 10.4 ± 0.11 | 5.837 ± 0.045 | 6.06 ± 0.79 | 5.37 ± 0.12 | 5.428 ± 0.015 | 10.47 ± 0.039 | 6.129 ± 0.044 | 13.1 ± 1.5 | 5.92 ± 0.34 | 6.466 ± 0.03
MNSLRPELLELTPQALTALSNAGFVKRSLKELENGNVPEISHENDALIATFSDGVRTQLANGQALKEAQCSCGANGMCRHRVMLVLSYQRLCATTQSTEKEEEWDPAIWLEELATLPDATRKRAQALVAKGITIELFCAPGEIPSARLPMSDVRFYSRSSIRFARCDCIEGTLCEHVVLAVQAFVEAKAQQAEFNHLIWQMRSEHVTSSDDPFASEEGNACRQYVQQLSQTLWLGGISQPLIHYEAAFNRALQAAETCNWRWVSESLRQLRASVDAFHARASHYNAGECLHQLAALNSRLNCAQEMARRDSIGEVPPVPWRTVVGSGIAGEAKLDHLRLVSLGMRCWQDIEHYGLRIWFTDPDTGSILHLSRSWPRSEQENSPAATRRLFSFQAGALAGGQIVSQAAKRSADGELLLATRNRLSSVVPLSPDAWQMLSAPLRQPGIVALREYLRQRPPACIRPLNQVDNLFILPVAECISLGWDSSRQTLDAQVISGEGEDNVLTLSLPASASAPYAVERMAALLQQTDDPVCLVSGFVSFVEGQLTLEPRVMMTKTRAWALDAETTPVAPLPSASVLPVPSTAHQLLIRCQALLIQLLHNGWRYQEQSAIGQA |  |  |  | 3.47 |  |  |  |  |  |  |  | 
MNSLYTAEGVMDKHSLWQRYVPLVRHEALRLQVRLPASVELDDLLQAGGIGLLNAVERYDALQGTAFTTYAVQRIRGAMLDELRSRDWVPRSVRRNAREVAQAIGQLEQELGRNATETEVAERLGIDIADYRQMLLDTNNSQLFSYDEWREEHGDSIELVTDDHQRENPLQQLLDSNLRQRVMEAIETLPEREKLVLTLYYQEELNLKEIGAVLEVGESRVSQLHSQAIKRLRTKLGKL [P0AEM6] | 1.78 ± 0.19 | 2.5 ± 0.38 | 3 ± 0.9 | 4.94 |  |  |  |  |  |  |  | 
MNSNKELMQRRSQAIPRGVGQIHPIFADRAENCRVWDVEGREYLDFAGGIAVLNTGHLHPKVVAAVEAQLKKLSHTCFQVLAYEPYLELCEIMNQKVPGDFAKKTLLVTTGSEAVENAVKIARAATKRSGTIAFSGAYHGRTHYTLALTGKVNPYSAGMGLMPGHVYRALYPCPLHGISEDDAIASIHRIFKNDAAPEDIAAIVIEPVQGEGGFYASSPAFMQRLRALCDEHGIMLIADEVQSGAGRTGTLFAMEQMGVAPDLTTFAKSIAGGFPLAGVTGRAEVMDAVAPGGLGGTYAGNPIACVAALEVLKVFEQENLLQKANDLGQKLKDGLLAIAEKHPEIGDVRGLGAMIAIELFEDGDHNKPDAKLTAEIVARARDKGLILLSCGPYYNVLRILVPLTIEDAQIRQGLEIISQCFDEAKQ | 2.993 ± 0.012 | 4.86 ± 0.26 | 9.33 ± 1.2 | 3.78 ± 0.21 | 2.96 ± 0.38 | 2.83 ± 0.11 | 3.04 ± 0.32 | 4.1 ± 0.17 | 5.414 ± 0.018 | 9.92 ± 0.68 | 2.98 ± 0.17 | 3.23 ± 0.15
